Measured values published in paper PMC3589453, “Structural Characterization of the Self-Association of the Death Domain of p75^NTR” (PLoS ONE, 2013).

How the values were obtained:
[1] = molecular target: p75DD-Fusion (chimera of the p75NTR death domain and a p75-interacting peptide from NRIF) (rat | not stated) (UniProt P07174); assay: SEC; purified p75NTR constructs and their mutants on a Superdex 75 column; monomer and dimer peaks; some runs with beta-ME or DTNB
[2] = molecular target: p75CTD symmetric dimer (dimer of the C416S mutant of p75CTD) (rat) (UniProt P07174); assay: SPR; Biacore 3000, 25 °C; p75CTD monomer and dimer coupled onto a CM-5 chip at equal molarities; NRIF peptide flowed over; 50 mM Hepes-KOH pH 7.5, 100 mM KCl, 5% glycerol, 0.005% Tween-20
[3] = molecular target: the molecule itself; assay: SEC; purified p75NTR constructs and their mutants on a Superdex 75 column; monomer and dimer peaks; some runs with beta-ME or DTNB
[4] = molecular target: the molecule itself; assay: crystal structure; p75DD modified with DTNB; sitting drop, 4 °C, 0.1 M Bis-Tris propane pH 7.0, 1.2 M sodium citrate; asymmetric dimer in the crystal lattice
[5] = molecular target: the molecule itself; assay: immunoprecipitation and non-reducing SDS-PAGE immunoblot; HA-p75NTR in transfected HEK 293T cells without ligand; lysate in 40 mM Tris pH 7.6, 150 mM NaCl, 0.5% NP-40, 10% glycerol; anti-HA immunoprecipitates boiled with or without DTT, blotted with anti-HA
[6] = molecular target: T1, p75CTD monomer (p75CTD C379S/C416S) (rat, UniProt P07174 334-425, C379S | C416S, biotinylated for the BLI assay); assay: SPR; Biacore 3000, 25 °C; p75CTD monomer and dimer coupled onto a CM-5 chip at equal molarities; NRIF peptide flowed over; 50 mM Hepes-KOH pH 7.5, 100 mM KCl, 5% glycerol, 0.005% Tween-20; conditions: both partners purified
T1 construct: p75NTR, rat, residues 334-425; Mutant of m3; the tag is that of the parent construct; Biotinylated for BLI, coupled onto a CM-5 chip for SPR; also called double cysteine residue mutant
T1 sequence (looked up): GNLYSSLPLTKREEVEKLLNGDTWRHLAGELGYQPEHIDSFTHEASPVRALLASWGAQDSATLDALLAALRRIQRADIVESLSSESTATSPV

[7] = molecular target: T2, p75CTD monomer (p75CTD C379S/C416S) (rat, UniProt P07174 334-425, C379S | C416S, biotinylated for the BLI assay); assay: BLI
T2 sequence: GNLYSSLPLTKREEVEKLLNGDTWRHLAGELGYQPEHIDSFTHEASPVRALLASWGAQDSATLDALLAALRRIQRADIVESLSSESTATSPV

[8] = molecular target: T1, p75CTD monomer (p75CTD C379S/C416S); assay: BLI; Octet (ForteBio); biotinylated p75CTD proteins loaded on Streptavidin High Binding FA biosensors; RIP2 CARD in solution at 5 µM, then 20, 10, 5 and 2 µM for the monomer; 50 mM Hepes-NaOH pH 7.5, 100 mM NaCl, 5% glycerol, 1 mM EDTA; conditions: both partners purified

p75DD-Fusion (chimera of the p75NTR death domain and a p75-interacting peptide from NRIF) (from UniProt P07174 334-418)
stoichiometry N [1]: 2

NRIF peptide (residues 552-577), chemically synthesized
Kd [2]: 10 µM

B1: p75DD (rat p75NTR death domain, residues 334-418) (domain or fragment, UniProt P07174 334-418, looked up)
chain: GNLYSSLPLTKREEVEKLLNGDTWRHLAGELGYQPEHIDSFTHEACPVRALLASWGAQDSATLDALLAALRRIQRADIVESLCSE
notes: p75NTR (neurotrophin receptor p75), rat, death domain, residues 334-418; pET24a vector; Not treated with DTNB in the solution experiments (the DTNB-treated crystal form is m2); also called His6-tagged p75DD; source: E. coli BL21, purified (Ni-NTA, size-exclusion chromatography); also co-expressed in E. coli with GST-tagged NRIF loop region (521-661); not shown: His6, C-terminal, kept
stoichiometry N [3]: 2

B2: p75DD modified with DTNB (as crystallised) (domain or fragment, rat, UniProt P07174 334-418, looked up)
chain: GNLYSSLPLTKREEVEKLLNGDTWRHLAGELGYQPEHIDSFTHEACPVRALLASWGAQDSATLDALLAALRRIQRADIVESLCSE
modifications: Cys379 and Cys416 modified by DTNB (MNB group)
notes: p75NTR, rat, death domain, residues 334-418 (334-417 traced in the structure); Same construct as m1 after treatment with DTNB at a 5:1 molar ratio; also called DTNB-modified p75DD; source: E. coli BL21, purified (Ni-NTA, size-exclusion chromatography), then modified with DTNB
binding result [4]: binds

B3: full-length rat p75NTR with N-terminal HA tag (receptor, UniProt P07174 30-425, looked up)
chain: KETCSTGLYTHSGECCKACNLGEGVAQPCGANQTVCEPCLDNVTFSDVVSATEPCKPCTECLGLQSMSAPCVEADDAVCRCAYGYYQDEETGHCEACSVCEVGSGLVFSCQDKQNTVCEECPEGTYSDEANHVDPCLPCTVCEDTERQLRECTPWADAECEEIPGRWIPRSTPPEGSDSTAPSTQEPEVPPEQDLVPSTVADMVTTVMGSSQPVVTRGTTDNLIPVYCSILAAVVVGLVAYIAFKRWNSCKQNKQGANSRPVNQTPPPEGEKLHSDSGISVDSQSLHDQQTHTQTASGQALKGDGNLYSSLPLTKREEVEKLLNGDTWRHLAGELGYQPEHIDSFTHEACPVRALLASWGAQDSATLDALLAALRRIQRADIVESLCSESTATSPV
notes: p75NTR, rat, full length; pCDNA3 construct, a gift; also called wildtype; full-length p75NTR; source: HEK 293T, transiently transfected, in lysate; not shown: HA, N-terminal, kept
stoichiometry N [5]: 2

B4: NRIF peptide (residues 552-577), chemically synthesized (peptide)
chain: MESGAGRASDNSLLTHALPVKSHQKG
Kd [6]: ~10 µM

B5: p75ICD (rat p75NTR intracellular region, residues 280-425) (domain or fragment, UniProt P07174 280-425, looked up)
chain: KQNKQGANSRPVNQTPPPEGEKLHSDSGISVDSQSLHDQQTHTQTASGQALKGDGNLYSSLPLTKREEVEKLLNGDTWRHLAGELGYQPEHIDSFTHEACPVRALLASWGAQDSATLDALLAALRRIQRADIVESLCSESTATSPV
notes: p75NTR, rat, intracellular region, residues 280-425; pET24a vector; source: E. coli BL21, purified (Ni-NTA, size-exclusion chromatography)
stoichiometry N [3]: 2

B6: Human RIP2 CARD domain (residues 438-524) (domain or fragment, UniProt O43353 438-524, looked up)
chain: QWIQSKREDIVNQMTEACLNQSLDALLSRDLIMKEDYELVSTKPTRTSKVRQLLDTTDIQGEEFAKVIVQKLKDNKQMGLQPYPEIL
notes: pET24a vector; also called CARD protein; source: E. coli, purified (similar to p75DD)
Kd [7]: 0.24 µM
fold stronger than the NRIF peptide on p75CTD (KD about 10^-5 M) [8]: ~100 fold

B7: p75CTD C416S (domain or fragment, rat, UniProt P07174 334-425, looked up)
chain: GNLYSSLPLTKREEVEKLLNGDTWRHLAGELGYQPEHIDSFTHEACPVRALLASWGAQDSATLDALLAALRRIQRADIVESLSSESTATSPV
notes: p75NTR, rat, residues 334-425; Mutant of m3, the single chain for its self-association; the isolated dimer is m12; also called C416S mutant of p75CTD
stoichiometry N [3]: 2

B8: p75CTD (rat p75NTR residues 334-425) (domain or fragment, UniProt P07174 334-425, looked up)
chain: GNLYSSLPLTKREEVEKLLNGDTWRHLAGELGYQPEHIDSFTHEACPVRALLASWGAQDSATLDALLAALRRIQRADIVESLCSESTATSPV
notes: p75NTR, rat, death domain and C-terminal tail, residues 334-425; pET24a vector; source: E. coli BL21, purified (Ni-NTA, size-exclusion chromatography)
stoichiometry N [3]: 2
